# US5693502
# Tests used:
# [1] = target: Tth DNA polymerase (rTth) (Thermus thermophilus) (UniProt P52028); assay: filter
# [2] = target: Taq DNA polymerase (rTaq) (Thermus aquaticus) (UniProt P19821); assay: FP_none
# [3] = target: Taq DNA polymerase (rTaq) (Thermus aquaticus) (UniProt P19821); assay: filter; conditions: room temperature
# Sequence of Tth DNA polymerase (rTth) (Thermus thermophilus) (P52028 whole entry): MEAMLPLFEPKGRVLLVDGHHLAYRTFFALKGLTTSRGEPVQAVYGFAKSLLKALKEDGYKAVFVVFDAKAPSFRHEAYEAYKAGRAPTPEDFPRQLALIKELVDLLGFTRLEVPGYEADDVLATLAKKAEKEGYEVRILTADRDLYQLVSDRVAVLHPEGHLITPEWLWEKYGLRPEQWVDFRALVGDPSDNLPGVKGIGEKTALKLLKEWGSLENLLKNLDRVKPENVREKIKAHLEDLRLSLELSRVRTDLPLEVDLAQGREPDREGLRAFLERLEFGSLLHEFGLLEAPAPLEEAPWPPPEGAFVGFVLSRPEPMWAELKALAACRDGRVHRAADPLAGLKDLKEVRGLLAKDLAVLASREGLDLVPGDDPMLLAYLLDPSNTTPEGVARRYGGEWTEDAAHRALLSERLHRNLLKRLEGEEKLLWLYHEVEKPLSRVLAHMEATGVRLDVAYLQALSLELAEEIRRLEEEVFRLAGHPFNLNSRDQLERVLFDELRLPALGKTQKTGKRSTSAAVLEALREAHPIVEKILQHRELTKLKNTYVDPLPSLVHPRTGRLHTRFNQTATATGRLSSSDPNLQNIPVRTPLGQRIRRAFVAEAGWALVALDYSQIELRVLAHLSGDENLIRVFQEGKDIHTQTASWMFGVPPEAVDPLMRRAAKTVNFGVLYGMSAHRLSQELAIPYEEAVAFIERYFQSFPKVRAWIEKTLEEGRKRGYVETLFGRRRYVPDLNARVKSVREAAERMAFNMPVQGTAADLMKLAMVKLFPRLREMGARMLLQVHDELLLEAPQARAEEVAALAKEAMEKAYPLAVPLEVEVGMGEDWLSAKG
# Sequence of Taq DNA polymerase (rTaq) (Thermus aquaticus) (P19821 whole entry): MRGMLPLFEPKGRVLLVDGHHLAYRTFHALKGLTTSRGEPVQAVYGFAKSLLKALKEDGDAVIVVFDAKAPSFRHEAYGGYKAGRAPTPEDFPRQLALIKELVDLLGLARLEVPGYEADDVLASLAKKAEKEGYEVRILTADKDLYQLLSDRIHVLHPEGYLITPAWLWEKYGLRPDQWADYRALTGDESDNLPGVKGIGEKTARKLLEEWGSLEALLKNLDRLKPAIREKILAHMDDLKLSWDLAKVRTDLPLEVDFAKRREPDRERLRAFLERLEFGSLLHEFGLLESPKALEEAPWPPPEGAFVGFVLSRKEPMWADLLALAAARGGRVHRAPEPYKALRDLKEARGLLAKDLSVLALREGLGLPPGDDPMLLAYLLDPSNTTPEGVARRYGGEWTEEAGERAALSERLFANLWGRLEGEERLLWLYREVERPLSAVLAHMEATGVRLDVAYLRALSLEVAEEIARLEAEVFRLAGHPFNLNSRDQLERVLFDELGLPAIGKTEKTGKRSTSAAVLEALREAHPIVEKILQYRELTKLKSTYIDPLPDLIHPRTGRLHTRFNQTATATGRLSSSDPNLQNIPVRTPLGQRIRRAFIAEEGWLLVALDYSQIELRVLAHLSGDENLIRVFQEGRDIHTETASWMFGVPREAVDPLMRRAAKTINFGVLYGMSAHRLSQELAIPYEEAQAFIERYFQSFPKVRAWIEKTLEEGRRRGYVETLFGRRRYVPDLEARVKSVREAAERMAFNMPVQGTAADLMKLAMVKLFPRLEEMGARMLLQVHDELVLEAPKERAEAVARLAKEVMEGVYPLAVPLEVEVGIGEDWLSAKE
sequence,measurement,setting,value
TTCTCGGTTGGTCTCTGGCGGAGCNNNNNNNNNNNNNNNNNNNNNNNNNNNNNNTCTTGTGTATGATTCGCTTTTCCC [Taq-enriched ssDNA pool (round 12)],Kd,"[1]; cross binding of Taq-selected pool, room temperature",0.2 nM
same,Kd,[2],3.5 nM
TTCTCGGTTGGTCTCTGGCGGAGCNNNNNNNNNNNNNNNNNNNNNNNNNNNNNNTCTTGTGTATGATTCGCTTTTCCC [Tth-enriched ssDNA pool (round 10)],Kd,"[3]; cross binding of Tth-selected pool, saturates at about 50%, about half of pool not interacting",0.3 nM
same,Kd,"[1]; 50 mM Bicine-KOH pH 8.3, 90 mM KCl, 3.5 mM Mn(OAc)2, tRNA, 0.01% hSA, room temperature",5 nM
TTCTCGGTTGGTCTCTGGCGGAGCNNNNNNNNNNNNNNNNNNNNNNNNNNNNNNTCTTGTGTATGATTCGCTTTTCCC [unselected random 30N ssDNA pool],Kd,"[3]; unselected pool, 10 mM Tris-HCl pH 8.3, 50 mM KCl, 2.5 mM MgCl2, tRNA, 0.01% hSA",> 50 nM
same,Kd,"[1]; unselected pool, Bicine-KOH pH 8.3, 90 mM KCl, 3.5 mM Mn(OAc)2, room temperature",70 nM
